According to PMC4844972, “A dynamic interaction process between KaiA and KaiC is critical to the cyanobacterial circadian oscillator” (Scientific Reports, 2016):
Changes are numbered by the printed parent chain.

B1: wild-type KaiC of Synechococcus elongatus PCC 7942 (enzyme)
chain: MTSAEMTSPNNNSEHQAIAKMRTMIEGFDDISHGGLPIGRSTLVSGTSGTGKTLFSIQFLYNGIIEFDEPGVFVTFEETPQDIIKNARSFGWDLAKLVDEGKLFILDASPDPEGQEVVGGFDLSALIERINYAIQKYRARRVSIDSVTSVFQQYDASSVVRRELFRLVARLKQIGATTVMTTERIEEYGPIARYGVEEFVSDNVVILRNVLEGERRRRTLEILKLRGTSHMKGEYPFTITDHGINIFPLGAMRLTQRSSNVRVSSGVVRLDEMCGGGFFKDSIILATGATGTGKTLLVSRFVENACANKERAILFAYEESRAQLLRNAYSWGMDFEEMERQNLLKIVCAYPESAGLEDHLQIIKSEINDFKPARIAIDSLSALARGVSNNAFRQFVIGVTGYAKQEEITGLFTNTSDQFMGAHSITDSHISTITDTIILLQYVEIRGEMSRAINVFKMRGSWHDKAIREFMISDKGPDIKDSFRNFERIISGSPTRITVDEKSELSRIVRGVQEKGPES
notes: KaiC, Synechococcus elongatus PCC 7942; expressed from pGEX-6P-1; The sample is a mixture of phosphorylated and de-phosphorylated KaiC (sites T432 and S431); also called the wild-type KaiC
B2: KaiC-2-1 (enzyme, Synechococcus elongatus PCC 7942)
chain: B1 chain with I497V, V499T, S503T
notes: KaiC, Synechococcus elongatus PCC 7942, with the mutations of Cluster II; The oligomer state is said to be the same as that of the wild type; also called KaiC mutant of Cluster II
B3: KaiC-3-1 (enzyme, Synechococcus elongatus PCC 7942)
chain: B1 chain with S493V, T495H
notes: KaiC, Synechococcus elongatus PCC 7942, with the mutations of Cluster III; The oligomer state is said to be the same as that of the wild type; also called KaiC mutant of Cluster III
B4: KaiC-1-1 (enzyme, Synechococcus elongatus PCC 7942)
chain: B1 chain with K502R
notes: KaiC, Synechococcus elongatus PCC 7942, with the mutation of Cluster I; The oligomer state is said to be the same as that of the wild type; also called KaiC mutant of Cluster I
B5: wild-type KaiA of Synechococcus elongatus PCC 7942 (natural protein)
chain: MLSQIAICIWVESTAILQDCQRALSADRYQLQVCESGEMLLEYAQTHRDQIDCLILVAANPSFRAVVQQLCFEGVVVPAIVVGDRDSEDPDEPAKEQLYHSAELHLGIHQLEQLPYQVDAALAEFLRLAPVETMADHIMLMGANHDPELSSQQRDLAQRLQERLGYLGVYYKRDPDRFLRNLPAYESQKLHQAMQTSYREIVLSYFSPNSNLNQSIDNFVNMAFFADVPVTKVVEIHMELMDEFAKKLRVEGRSEDILLDYRLTLIDVIAHLCEMYRRSIPRET
notes: KaiA, Synechococcus elongatus PCC 7942; expressed from pGEX-6P-1; Plasmid provided by Dr. Carl Johnson; also called the wild-type KaiA
B6: KaiA-1-1 (natural protein, Synechococcus elongatus PCC 7942)
chain: B5 chain with E239N, A245W
notes: KaiA, Synechococcus elongatus PCC 7942, with the mutations of Cluster I; R249 belongs to the cluster but was not mutated; The oligomer state is said to be the same as that of the wild type; also called KaiA mutant of Cluster I
B7: KaiA-3-1 (natural protein, Synechococcus elongatus PCC 7942)
chain: B5 chain with R253H, S254K, I257F
notes: KaiA, Synechococcus elongatus PCC 7942, with the mutations of Cluster III; The oligomer state is said to be the same as that of the wild type; also called KaiA mutant of Cluster III
B8: KaiA-2-1 (natural protein, Synechococcus elongatus PCC 7942)
chain: B5 chain with L259Q
notes: KaiA, Synechococcus elongatus PCC 7942, with the mutation of Cluster II; The oligomer state is said to be the same as that of the wild type; also called KaiA mutant of Cluster II

Target: KaiC (Synechococcus elongatus) (UniProt Q79PF4)
Test: not given
Conditions: cited from earlier work

**Q.** For KaiA (from UniProt Q79PF6), which Kd is on record?
**A.** 2500 nM

Target: the molecule itself
Test: native gel or EMSA; 8% native gel of the purified proteins, to analyse their oligomerization statuses
Conditions: not given

**Q.** Does B1 bind?
**A.** binds

**Q.** Does B2 bind?
**A.** binds

**Q.** Does B3 bind?
**A.** binds

**Q.** Does B4 bind?
**A.** binds

**Q.** Does B5 bind?
**A.** binds

**Q.** Does B6 bind?
**A.** binds

**Q.** Does B7 bind?
**A.** binds

**Q.** Does B8 bind?
**A.** binds
